± gives the standard error. Fewer inactive variants are shown than the library holds.
B1: glmS ribozyme (parent)
chain: AUAAAAGCGCCAGAACUACAGAAAUGUAGUUGACGAGGAGGAGGUUUAUCGAAUUUUCGGCGGAUGCCUCCAAA

Tests used:
Conditions in all cases: with glucosamine-6-phosphate
[1] = variants of: B1; assay: self-cleavage kobs at 640 uM GlcN6P; higher = faster cleavage; RNA array
How it was run: (§1)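 kobs was derived by fitting per-tile medians to one- or two-exponential decays after normalising signals to baseline and to non-cleaving reference variants. Those signals came from barcoded ribozyme variants transcribed in situ by E. coli RNA polymerase on sequenced MiSeq chips, followed through a hybridised Cy3 probe at 37 °C and imaged over ~14 h. Glucosamine-6-phosphate (40 μM to 10 mM) in HEPES/KCl/Mg(OAc)2 buffer was flowed in. Weighted Michaelis–Menten fits across concentrations then gave kcat and KM.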

[2] = variants of: B1; assay: self-cleavage kobs at 2500 uM GlcN6P; higher = faster cleavage; RNA array
How it was run: as §1

[3] = variants of: B1; assay: self-cleavage kobs at 10000 uM GlcN6P; higher = faster cleavage; RNA array
How it was run: as §1

Variant	self-cleavage kobs at 640 uM GlcN6P [1]	self-cleavage kobs at 2500 uM GlcN6P [2]	self-cleavage kobs at 10000 uM GlcN6P [3]
A12C U30G U45C C50A A52U	< 1e-05 s⁻¹		
C11U U30C C71A	0.000112 ± 2.4e-05 s⁻¹	6.85e-05 ± 2.1e-05 s⁻¹	
A15G C58A U69G	0.000122 ± 3.7e-05 s⁻¹	8.9e-05 ± 2.5e-05 s⁻¹	
A12C G40A U65A	9.15e-05 ± 1.3e-05 s⁻¹	0.000293 ± 5.4e-05 s⁻¹	
U30C A53U U57G A64C U69G	0.000129 ± 3.2e-05 s⁻¹	0.000128 ± 5.2e-05 s⁻¹	
A14U A15C A33C C61G U65G	< 1e-05 s⁻¹	< 1e-05 s⁻¹	
C11G A48G C71U	< 1e-05 s⁻¹	< 1e-05 s⁻¹	
G29C U55G	0.000107 ± 1.3e-05 s⁻¹	0.000164 ± 2.5e-05 s⁻¹	0.000757 ± 9.6e-05 s⁻¹
A14U C16A G66A	3.92e-05 ± 1.7e-05 s⁻¹	0.000107 ± 2.6e-05 s⁻¹	
A12C U49A A52C	< 1e-05 s⁻¹		
C10G C11G A33U C68G	4.85e-05 ± 2.2e-05 s⁻¹	9.09e-05 ± 3.3e-05 s⁻¹	
C16G U31G U54G	0.000146 ± 3.7e-05 s⁻¹	0.000327 ± 5.9e-05 s⁻¹	
C11A C16A C50G	0.000146 ± 4.5e-05 s⁻¹	8e-05 ± 2.7e-05 s⁻¹	
C11A A14G G43A U45G	4.76e-05 ± 2e-05 s⁻¹		
C16U A39G U55C	0.0143 ± 0.0027 s⁻¹		
A14C U56G U57A C71A	8.95e-05 ± 2.3e-05 s⁻¹	5.04e-05 ± 2e-05 s⁻¹	
A14C G32C C71U	7.58e-05 ± 2.5e-05 s⁻¹	0.000118 ± 2.6e-05 s⁻¹	0.000332 ± 7.4e-05 s⁻¹
G13C G29C G44U C50A G62C	< 1e-05 s⁻¹	< 1e-05 s⁻¹	< 1e-05 s⁻¹
C10U C16U G63U	< 1e-05 s⁻¹		< 1e-05 s⁻¹
A15U G41U G66U C70U	4.78e-05 ± 1.4e-05 s⁻¹		
A14G U30A A36U C58U G66U	< 1e-05 s⁻¹		

Variant	self-cleavage kobs at 640 uM GlcN6P [1]	self-cleavage kobs at 2500 uM GlcN6P [2]	self-cleavage kobs at 10000 uM GlcN6P [3]
C11G G41C U45G	< 1e-05 s⁻¹		
U30C U46G C70U	4.5e-05 ± 2e-05 s⁻¹		
U30C G37U C58A C68G	7.09e-05 ± 2.2e-05 s⁻¹	0.000165 ± 3.6e-05 s⁻¹	
C19A A33U	4.59e-05 ± 2.2e-05 s⁻¹	0.000114 ± 2.6e-05 s⁻¹	
G13C G43C A48U	< 1e-05 s⁻¹	< 1e-05 s⁻¹	
G29A U30G A52G	7.23e-05 ± 1.9e-05 s⁻¹	0.000399 ± 9.4e-05 s⁻¹	
G13U G35U C50U G66C	< 1e-05 s⁻¹		
A14G U31A G41A C71U	0.000186 ± 7.9e-05 s⁻¹	0.000396 ± 0.00011 s⁻¹	
G29A U45G	0.000156 ± 4.7e-05 s⁻¹	0.000503 ± 0.00012 s⁻¹	
G29C U65G C67G	0.000341 ± 0.00016 s⁻¹		
A14G G32C G63C G66U U69G	< 1e-05 s⁻¹	< 1e-05 s⁻¹	
G29C G51U	< 1e-05 s⁻¹		
U30C G63U C70G	3.84e-05 ± 1.8e-05 s⁻¹		
G13C U57C C58A	< 1e-05 s⁻¹		
C10U A12G G32A A42U	< 1e-05 s⁻¹	< 1e-05 s⁻¹	
C10G A15G A39U G60C C68A	< 1e-05 s⁻¹	< 1e-05 s⁻¹	
A14C A15G G37C U49C	< 1e-05 s⁻¹		
A15G U47G U55G C70A	0.000102 ± 1.7e-05 s⁻¹		
A12G G63A A64C	< 1e-05 s⁻¹		
A12C U56G G66U	0.000122 ± 2e-05 s⁻¹	0.000363 ± 8e-05 s⁻¹	
A12C A33C G40U G63U C68U	< 1e-05 s⁻¹	< 1e-05 s⁻¹	

Variant	self-cleavage kobs at 640 uM GlcN6P [1]	self-cleavage kobs at 2500 uM GlcN6P [2]	self-cleavage kobs at 10000 uM GlcN6P [3]
C16U A39G G40A A42G G43A U45G	0.00638 ± 0.0016 s⁻¹	0.0072 ± 0.0024 s⁻¹	
C16G A33U G37U C68G C71U	8.54e-05 ± 3.1e-05 s⁻¹		
G13U G41U A52C	< 1e-05 s⁻¹		
C11A G35A G63U A64C	< 1e-05 s⁻¹	< 1e-05 s⁻¹	
U31A C34U G51U	< 1e-05 s⁻¹	< 1e-05 s⁻¹	
U30A U55G C61U	< 1e-05 s⁻¹		< 1e-05 s⁻¹
U31G C34G U65A	< 1e-05 s⁻¹		
G13U U56C G62U	< 1e-05 s⁻¹	< 1e-05 s⁻¹	< 1e-05 s⁻¹
C16A G32A C70G	7.42e-05 ± 3e-05 s⁻¹		0.000127 ± 3.4e-05 s⁻¹
U31C G60U C67G	< 1e-05 s⁻¹	< 1e-05 s⁻¹	
C16G U56C C58U	< 1e-05 s⁻¹		
U30G U56A C68G	5.24e-05 ± 2.3e-05 s⁻¹		
A23C C68U	0.00205 ± 0.00047 s⁻¹	0.00111 ± 0.00026 s⁻¹	
A15C G29C G60U	< 1e-05 s⁻¹	< 1e-05 s⁻¹	< 1e-05 s⁻¹
C10U G38C G40A U55G	< 1e-05 s⁻¹	< 1e-05 s⁻¹	< 1e-05 s⁻¹
C16U A33G C50U U54G	< 1e-05 s⁻¹	< 1e-05 s⁻¹	< 1e-05 s⁻¹
G13A A15U G35U G40C	< 1e-05 s⁻¹		
A14G G32A G60A C61A C67A C70U	0.000302 ± 0.00012 s⁻¹		
C11A C16G A42U U56G C71U	< 1e-05 s⁻¹	< 1e-05 s⁻¹	

— the supplement of paper PMC7125110
